Usually IC50 stands for the point on the concentration scale where inhibition reaches its midpoint.

The source of these data is patent US20140322332A1 (GENUS ONCOLOGY, published 2014).

Assay [1] addresses T1, human MUC1 in human carcinoma cells (human, UniProt P15941 1097-1255).
T1 sequence: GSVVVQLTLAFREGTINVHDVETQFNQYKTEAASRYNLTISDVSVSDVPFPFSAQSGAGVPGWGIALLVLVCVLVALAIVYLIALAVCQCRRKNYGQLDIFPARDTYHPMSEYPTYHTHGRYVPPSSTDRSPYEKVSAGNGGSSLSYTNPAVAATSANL
Kind of assay: cell-based or functional assay.

The target of assay [2] is human MUC1 in human carcinoma cells (human) (UniProt P15941). In words: cell-based or functional assay.
Assay [3] deals with dopamine D1 receptor (Homo sapiens (Human)) (UniProt P21728). In words: receptor binding screen, inhibition of radioligand binding.

Positions of bridges follow the written chain, without caps; N, C: chain ends. Non-standard residues stand in square brackets, D forms with d.

dopamine D1 receptor (Homo sapiens (Human)), sequence (P21728 whole entry, form in doubt): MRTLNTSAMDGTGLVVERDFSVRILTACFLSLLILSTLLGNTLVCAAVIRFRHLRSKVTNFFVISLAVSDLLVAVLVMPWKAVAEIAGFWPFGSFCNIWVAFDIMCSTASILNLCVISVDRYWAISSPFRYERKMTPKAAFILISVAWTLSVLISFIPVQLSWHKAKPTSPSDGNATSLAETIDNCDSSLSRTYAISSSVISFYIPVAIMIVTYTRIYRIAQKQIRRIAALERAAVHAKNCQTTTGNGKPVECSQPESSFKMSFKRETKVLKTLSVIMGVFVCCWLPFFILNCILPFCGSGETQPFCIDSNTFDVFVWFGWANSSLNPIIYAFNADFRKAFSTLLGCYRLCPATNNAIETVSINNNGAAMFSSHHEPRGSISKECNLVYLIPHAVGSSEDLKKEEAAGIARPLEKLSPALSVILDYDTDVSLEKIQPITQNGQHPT

In the case of GO-203 (peptide), in assay [1], the % inhibition of proliferation, H1975 lung cancer cells, 5 µM peptide daily, viable cells by trypan blue is 75.8% and the % inhibition of proliferation, ZR-75-1 breast cancer cells, 5 µM peptide daily, viable cells by trypan blue stood at 44%.
In assay [2], Ac-[dR][dR][dR][dR][dR][dR][dR][dR][dR][dC][dQ][dC][dR][dR][dK][dN]-NH2 (cysteine pairing not given here) [GO-203-2] gave a % Inhibition of cell viability, A549 NSCLC, 5 µM of 75.4%; a % Inhibition of cell viability, H1975 NSCLC, 5 µM of 52.9%; a % Inhibition of cell viability, MCF-7 breast carcinoma, 5 µM of 91.4%; a % Inhibition of cell viability, ZR-75-1 breast carcinoma, 5 µM of 50.7%. Moreover, in assay [2], the % inhibition of proliferation, H1975 lung cancer cells, 5 µM peptide daily, viable cells by trypan blue amounted to 63.6%; the % inhibition of proliferation, ZR-75-1 breast cancer cells, 5 µM peptide daily, viable cells by trypan blue came out at 65.5%; the IC50 of inhibition of proliferation of a variety of human carcinoma cell lines in vitro is 2 to 5 µM.

B1: GO-203-2c (peptide)
peptide: Ac-[dR][dR][dR][dR][dR][dR][dR][dR][dR][dC][dQ][dC][dR][dR][dK][dN]-NH2
modifications: disulfide 10-12
SMILES: CC(=O)N[C@H](CCCNC(=N)N)C(=O)N[C@H](CCCNC(=N)N)C(=O)N[C@H](CCCNC(=N)N)C(=O)N[C@H](CCCNC(=N)N)C(=O)N[C@H](CCCNC(=N)N)C(=O)N[C@H](CCCNC(=N)N)C(=O)N[C@H](CCCNC(=N)N)C(=O)N[C@H](CCCNC(=N)N)C(=O)N[C@H](CCCNC(=N)N)C(=O)N[C@@H]1CSSC[C@H](C(=O)N[C@H](CCCNC(=N)N)C(=O)N[C@H](CCCNC(=N)N)C(=O)N[C@H](CCCCN)C(=O)N[C@H](CC(N)=O)C(N)=O)NC(=O)[C@@H](CCC(N)=O)NC1=O
With B1, the “IC50 of inhibition of proliferation of a variety of human carcinoma cell lines in vitro” value in assay [1] was 2 to 5 µM. In assay [3], this molecule came in with an IC50 of 10.5 µM.
